T1: CHRM1-VC (human, UniProt P11229 1-460)
T1 construct: whole, on cells; Adenovirus-expressed in U-2 OS cells; not shown: VC155, C-terminal fragment of Venus
T1 sequence (looked up): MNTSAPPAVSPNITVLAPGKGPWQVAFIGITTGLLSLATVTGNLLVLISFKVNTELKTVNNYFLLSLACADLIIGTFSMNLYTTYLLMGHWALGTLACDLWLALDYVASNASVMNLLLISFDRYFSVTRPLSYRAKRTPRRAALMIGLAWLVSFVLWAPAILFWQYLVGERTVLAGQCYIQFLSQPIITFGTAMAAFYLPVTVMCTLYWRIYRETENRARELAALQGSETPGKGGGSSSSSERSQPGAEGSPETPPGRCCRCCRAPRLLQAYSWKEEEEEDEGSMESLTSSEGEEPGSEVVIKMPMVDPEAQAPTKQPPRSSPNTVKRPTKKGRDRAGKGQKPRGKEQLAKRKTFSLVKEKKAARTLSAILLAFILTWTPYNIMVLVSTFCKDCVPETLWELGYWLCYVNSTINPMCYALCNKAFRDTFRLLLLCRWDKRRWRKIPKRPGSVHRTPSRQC

T2: EDNRB-VC (human, UniProt P24530 27-442)
T2 construct: whole, on cells; Adenovirus-expressed in U-2 OS cells; not shown: VC155, C-terminal fragment of Venus
T2 sequence (looked up): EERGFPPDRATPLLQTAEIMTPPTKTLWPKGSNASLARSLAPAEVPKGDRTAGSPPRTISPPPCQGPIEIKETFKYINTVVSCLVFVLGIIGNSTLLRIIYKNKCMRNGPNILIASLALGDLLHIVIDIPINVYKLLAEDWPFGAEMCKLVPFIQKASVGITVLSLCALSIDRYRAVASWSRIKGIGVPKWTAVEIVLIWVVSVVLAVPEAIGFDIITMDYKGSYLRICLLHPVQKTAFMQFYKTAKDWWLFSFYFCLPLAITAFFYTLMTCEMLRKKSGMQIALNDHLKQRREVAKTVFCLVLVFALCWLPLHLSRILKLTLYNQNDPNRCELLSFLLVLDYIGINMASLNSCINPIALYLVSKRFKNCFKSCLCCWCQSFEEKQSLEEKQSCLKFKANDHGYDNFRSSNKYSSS

T3: TACR3-VC (human, UniProt P29371 1-465)
T3 construct: whole, on cells; Adenovirus-expressed in U-2 OS cells; not shown: VC155, C-terminal fragment of Venus
T3 sequence (looked up): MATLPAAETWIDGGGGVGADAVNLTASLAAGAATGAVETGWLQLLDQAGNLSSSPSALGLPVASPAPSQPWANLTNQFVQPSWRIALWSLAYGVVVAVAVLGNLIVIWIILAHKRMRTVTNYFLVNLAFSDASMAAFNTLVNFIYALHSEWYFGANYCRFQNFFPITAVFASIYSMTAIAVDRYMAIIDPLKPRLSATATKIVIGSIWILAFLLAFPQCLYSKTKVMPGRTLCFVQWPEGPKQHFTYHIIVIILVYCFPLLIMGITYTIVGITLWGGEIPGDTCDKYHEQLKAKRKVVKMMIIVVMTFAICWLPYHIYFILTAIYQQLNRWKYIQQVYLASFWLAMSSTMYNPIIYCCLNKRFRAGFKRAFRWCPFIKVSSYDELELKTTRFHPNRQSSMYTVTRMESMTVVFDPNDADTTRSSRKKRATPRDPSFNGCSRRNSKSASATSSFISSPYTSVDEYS

T4: APLNR-VC (human, UniProt P35414 1-380)
T4 construct: whole, on cells; Adenovirus-expressed in U-2 OS cells; not shown: VC155, C-terminal fragment of Venus
T4 sequence (looked up): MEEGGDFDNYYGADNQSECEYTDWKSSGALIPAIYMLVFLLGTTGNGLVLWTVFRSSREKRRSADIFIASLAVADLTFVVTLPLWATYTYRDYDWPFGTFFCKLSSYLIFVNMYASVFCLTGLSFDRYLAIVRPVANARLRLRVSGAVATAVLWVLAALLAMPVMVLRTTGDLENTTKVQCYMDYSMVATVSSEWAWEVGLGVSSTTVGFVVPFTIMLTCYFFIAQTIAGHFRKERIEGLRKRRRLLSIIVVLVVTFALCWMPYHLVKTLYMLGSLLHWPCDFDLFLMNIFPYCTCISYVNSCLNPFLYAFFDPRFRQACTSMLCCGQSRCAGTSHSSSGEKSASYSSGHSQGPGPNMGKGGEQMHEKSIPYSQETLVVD

T5: CHRM1 (human, UniProt P11229 1-460)
T5 construct: whole, on cells; Untagged: adenovirus-expressed in U-2 OS or MDA-MB-231 cells, or endogenous in patient derived cells; also called Cholinergic Receptor Muscarinic 1
T5 sequence (looked up): T1 sequence (looked up)

B1: ADRA1A-VC (receptor, human, UniProt P35348 1-466, looked up)
chain: MVFLSGNASDSSNCTQPPAPVNISKAILLGVILGGLILFGVLGNILVILSVACHRHLHSVTHYYIVNLAVADLLLTSTVLPFSAIFEVLGYWAFGRVFCNIWAAVDVLCCTASIMGLCIISIDRYIGVSYPLRYPTIVTQRRGLMALLCVWALSLVISIGPLFGWRQPAPEDETICQINEEPGYVLFSALGSFYLPLAIILVMYCRVYVVAKRESRGLKSGLKTDKSDSEQVTLRIHRKNAPAGGSGMASAKTKTHFSVRLLKFSREKKAAKTLGIVVGCFVLCWLPFFLVMPIGSFFPDFKPSETVFKIVFWLGYLNSCINPIIYPCSSQEFKKAFQNVLRIQCLCRKQSSKHALGYTLHPPSQAVEGQHKDMVRIPVGSRETFYRISKTDGVCEWKFFSSMPRGSARITVSKDQSSCTTARVRSKSFLQVCCCVGPSTPSLDKNHQVPTIKVHTISLSENGEEV
notes: whole, on cells; Adenovirus-expressed in U-2 OS cells; not shown: VC155, C-terminal fragment of Venus
B2: CXCR4-EGFP (receptor, human, UniProt P61073 1-352, looked up)
chain: MEGISIYTSDNYTEEMGSGDYDSMKEPCFREENANFNKIFLPTIYSIIFLTGIVGNGLVILVMGYQKKLRSMTDKYRLHLSVADLLFVITLPFWAVDAVANWYFGNFLCKAVHVIYTVNLYSSVLILAFISLDRYLAIVHATNSQRPRKLLAEKVVYVGVWIPALLLTIPDFIFANVSEADDRYICDRFYPNDLWVVVFQFQHIMVGLILPGIVILSCYCIIISKLSHSKGHQKRKALKTTVILILAFFACWLPYYIGISIDSFILLEIIKQGCEFENTVHKWISITEALAFFHCCLNPILYAFLGAKFKTSAQHALTSVSRGSSLKILSKGKRGGHSSVSTESESSSFHSS
notes: whole, on cells; also called CXCR4-GFP; CXCR-EGFP; not shown: EGFP/GFP from the pAdHTS-GFPC vector
B3: CXCR4-VN (receptor, human, UniProt P61073 1-352, looked up)
chain: B2 chain
notes: whole, on cells; Adenovirus-expressed in U-2 OS cells; also called CXCR4 fused with N-terminal fragment of Venus; not shown: VNm10, N-terminal fragment of Venus (VN154 variant with L46F and L64F)

In the experiment “CXCR4-VN” the target is B3. As to the kind of experiment: BiFC, U-2 OS cells; score=(positive cells/total cells)x100. The protocol:
(§1) Images of about 200 cells from each well were analyzed with Multi-target analysis software in IN Cell Developer ToolBox (GE Healthcare, Waukesha, Wis.). Cell boundary was marked based on Hoechst signal, and fluorescence intensity per cell was measured. Cells with fluorescence intensities higher than background level were considered as BiFC positive cells. […] Positive cells were determined, and positive cell count ratio (“BiFC score”) was calculated as (positive cells/total cells)×100 (see Table 4 below).

For experiment [1], the target named is T1, CHRM1-VC. Kind of experiment: co-internalization of CXCR4-GFP after GPCRx agonist, U-2 OS cells. On the procedure: (§2) Images were obtained before and 30 min after agonist stimulation, and analyzed using IN Cell Analyzer 2000.
(§3) U-2 OS cells were seeded at a density of 3000 cells per well in a black 96-well clear-bottom plate in 100 μl of McCoy's 5A medium supplemented with 10% FBS. […] Two days post-transduction, cells were stimulated with GPCRx agonists for 30 min and fixed with 2% formaldehyde.

Experiment [2] concerns the target T2, EDNRB-VC. The description is as above. On the procedure: as §2, §3
Experiment [3] concerns the target T6, HRH1-VC (human, UniProt P35367 1-487).
T6 construct: whole, on cells; Adenovirus-expressed in U-2 OS cells; not shown: VC155, C-terminal fragment of Venus
The experiment is described as above. On the procedure:
as §2, §3

The target in experiment [4] is T7, MLNR-VC (human, UniProt O43193 1-412).
T7 construct: whole, on cells; Adenovirus-expressed in U-2 OS cells; not shown: VC155, C-terminal fragment of Venus
T7 sequence (O43193 whole entry, the tested form may be a part): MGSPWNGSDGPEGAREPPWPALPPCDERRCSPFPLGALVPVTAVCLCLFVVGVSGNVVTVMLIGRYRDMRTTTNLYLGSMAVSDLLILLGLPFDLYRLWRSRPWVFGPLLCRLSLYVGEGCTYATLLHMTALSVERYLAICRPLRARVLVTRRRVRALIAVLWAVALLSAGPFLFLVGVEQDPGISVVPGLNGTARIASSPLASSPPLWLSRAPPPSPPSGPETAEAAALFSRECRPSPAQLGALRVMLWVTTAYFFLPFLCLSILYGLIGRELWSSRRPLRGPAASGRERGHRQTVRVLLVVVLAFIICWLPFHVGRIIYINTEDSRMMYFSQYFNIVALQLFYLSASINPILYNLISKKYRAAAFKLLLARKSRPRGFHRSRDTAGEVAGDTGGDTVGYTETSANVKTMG
The description is as above. The protocol: as §2, §3

The target of experiment [5] is T8, NTSR1-VC (human, UniProt P30989 1-418).
T8 construct: whole, on cells; Adenovirus-expressed in U-2 OS cells; not shown: VC155, C-terminal fragment of Venus
T8 sequence (P30989 whole entry, the tested form may be a part): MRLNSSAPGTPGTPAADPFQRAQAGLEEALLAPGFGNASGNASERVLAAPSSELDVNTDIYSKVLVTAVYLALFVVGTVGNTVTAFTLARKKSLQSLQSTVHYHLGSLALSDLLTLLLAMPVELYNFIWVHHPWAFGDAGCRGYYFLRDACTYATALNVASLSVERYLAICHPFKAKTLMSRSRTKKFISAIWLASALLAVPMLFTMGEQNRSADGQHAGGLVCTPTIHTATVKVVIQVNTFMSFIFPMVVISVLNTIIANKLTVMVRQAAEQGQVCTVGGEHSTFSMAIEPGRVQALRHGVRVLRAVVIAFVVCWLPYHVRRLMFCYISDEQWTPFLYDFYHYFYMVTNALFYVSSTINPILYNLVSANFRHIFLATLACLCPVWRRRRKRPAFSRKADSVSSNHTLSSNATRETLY
Described as above. The protocol:
as §2, §3

Experiment [6] deals with T9, SSTR2-VC (human, UniProt P30874 1-369).
T9 construct: whole, on cells; Adenovirus-expressed in U-2 OS cells; not shown: VC155, C-terminal fragment of Venus
T9 sequence (P30874 whole entry, the tested form may be a part): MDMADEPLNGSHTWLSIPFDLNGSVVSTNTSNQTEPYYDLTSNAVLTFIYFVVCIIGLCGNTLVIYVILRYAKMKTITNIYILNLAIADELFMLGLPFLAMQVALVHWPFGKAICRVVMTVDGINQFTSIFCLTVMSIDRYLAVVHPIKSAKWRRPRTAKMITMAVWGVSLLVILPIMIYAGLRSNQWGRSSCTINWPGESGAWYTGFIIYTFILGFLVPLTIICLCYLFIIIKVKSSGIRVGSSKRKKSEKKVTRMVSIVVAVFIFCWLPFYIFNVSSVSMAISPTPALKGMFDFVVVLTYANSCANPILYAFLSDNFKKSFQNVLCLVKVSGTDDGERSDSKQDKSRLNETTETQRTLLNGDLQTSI
Described as above. The protocol: as §2, §3

Experiment [7] has as its target T3, TACR3-VC. The description is as above. On the procedure:
as §2, §3

In experiment [8] the target is T10, ADRB2-VC (human, UniProt P07550 1-413).
T10 construct: whole, on cells; Adenovirus-expressed in U-2 OS cells; not shown: VC155, C-terminal fragment of Venus
Described as above. On the procedure:
as §2, §3

Experiment [9] addresses T4, APLNR-VC. The experiment is described as above. On the procedure: as §2, §3
For a further experiment, the target named is T11, ADRB2 (human, UniProt P07550 1-413).
T11 construct: whole, on cells; Untagged: adenovirus-expressed in U-2 OS or MDA-MB-231 cells, or endogenous in patient derived cells and PDX tissue; also called Adrenoceptor Beta 2; Ad-ADRB2
Kind of experiment: internalization inhibition assay, CXCR4-GFP U-2 OS cells transduced with GPCRx; CXCL12 and/or GPCRx antagonist. The protocol: (§4) Internalization of CXCR4-GFP was observed as GFP granules using IN Cell Analyzer 2500. Loss of GFP expression on the cell surface or appearance of GFP granules inside the cells were considered as CXCR4-GFP co-internalization.
(§5) CXCR4-GFP expressed U-2 OS cells were seeded at a density of 5000 cells per well in a black 96-well clear-bottom plate in 100 μl of McCoy's 5A medium supplemented with 10% FBS. On the following day, the cells were transduced with adenoviruses encoding GPCRx (30 MOI).

In a further experiment the target is T5, CHRM1. Described as above. On the procedure: as §4, §5
A further experiment addresses T12, HRH1 (human, UniProt P35367 1-487).
T12 construct: whole, on cells; Untagged: adenovirus-expressed in U-2 OS or MDA-MB-231 cells, or endogenous in MDA-MB-231 cells; also called Histamine Receptor H1
Described as above. The protocol:
as §4, §5

Experiment [10] concerns the target T1, CHRM1-VC. As to the kind of experiment: BiFC, U-2 OS cells. On the procedure: as §1
Experiment [11] deals with T2, EDNRB-VC. Kind of experiment: BiFC, U-2 OS cells. On the procedure: as §1
Experiment [12] deals with T6, HRH1-VC. As to the kind of experiment: BiFC, U-2 OS cells. On the procedure: as §1
Experiment [13] addresses T7, MLNR-VC. As to the kind of experiment: BiFC, U-2 OS cells. The protocol: as §1
The target in experiment [14] is T8, NTSR1-VC. As to the kind of experiment: BiFC, U-2 OS cells. The protocol:
as §1

A further experiment addresses T13, PTGER2-VC (human, UniProt P43116 1-358).
T13 construct: whole, on cells; Adenovirus-expressed in U-2 OS cells; not shown: VC155, C-terminal fragment of Venus
Kind of experiment: BiFC, U-2 OS cells. On the procedure: as §1

Experiment [15] deals with T3, TACR3-VC. As to the kind of experiment: BiFC, U-2 OS cells. The protocol:
as §1

Experiment [16] has as its target T10, ADRB2-VC. As to the kind of experiment: BiFC, U-2 OS cells. On the procedure: as §1
Experiment [17] deals with T9, SSTR2-VC. Kind of experiment: BiFC and co-internalization assay, U-2 OS cells.
The next experiment addresses T14, CNR2-VC (human, UniProt P34972 1-360).
T14 construct: whole, on cells; Adenovirus-expressed in U-2 OS cells; also called Cannabinoid Receptor 2-VC; CB2; not shown: VC155, C-terminal fragment of Venus
As to the kind of experiment: BiFC and co-internalization assay, U-2 OS cells.

Experiment [18] addresses T4, APLNR-VC. As to the kind of experiment: BiFC and co-internalization assay, U-2 OS cells.
A further experiment has as its target T15, GCGR-VC (human, UniProt P47871 26-477).
T15 construct: whole, on cells; Adenovirus-expressed in U-2 OS cells; also called glucagon receptor-VC; not shown: VC155, C-terminal fragment of Venus
As to the kind of experiment: BiFC, U-2 OS cells co-expressing CXCR4-VN and GCGR-VC. On the procedure: as §1

T6 sequence (P35367 whole entry, the tested form may be a part): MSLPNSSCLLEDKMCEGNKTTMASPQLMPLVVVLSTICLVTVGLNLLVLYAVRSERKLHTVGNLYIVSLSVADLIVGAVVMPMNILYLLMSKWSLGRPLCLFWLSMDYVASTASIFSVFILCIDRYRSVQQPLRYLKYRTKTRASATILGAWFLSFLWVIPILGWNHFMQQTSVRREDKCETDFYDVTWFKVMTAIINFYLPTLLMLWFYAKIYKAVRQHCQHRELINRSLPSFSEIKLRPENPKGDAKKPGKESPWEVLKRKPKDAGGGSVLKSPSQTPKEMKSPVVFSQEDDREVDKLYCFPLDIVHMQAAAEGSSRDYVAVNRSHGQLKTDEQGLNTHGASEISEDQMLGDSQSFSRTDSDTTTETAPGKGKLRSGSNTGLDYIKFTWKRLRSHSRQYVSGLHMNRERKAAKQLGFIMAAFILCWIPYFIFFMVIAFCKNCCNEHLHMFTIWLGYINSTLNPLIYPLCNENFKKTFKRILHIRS
T13 sequence (P43116 whole entry, the tested form may be a part): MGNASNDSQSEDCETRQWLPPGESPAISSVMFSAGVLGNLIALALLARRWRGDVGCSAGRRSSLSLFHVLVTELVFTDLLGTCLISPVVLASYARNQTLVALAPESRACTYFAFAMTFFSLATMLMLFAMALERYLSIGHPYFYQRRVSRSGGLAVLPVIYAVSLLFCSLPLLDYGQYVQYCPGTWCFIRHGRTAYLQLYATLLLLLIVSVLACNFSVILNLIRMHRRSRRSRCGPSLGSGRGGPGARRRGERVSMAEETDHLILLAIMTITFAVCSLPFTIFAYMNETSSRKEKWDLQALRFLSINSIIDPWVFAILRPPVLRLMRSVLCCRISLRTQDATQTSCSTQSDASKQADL
T14 sequence (P34972 whole entry, the tested form may be a part): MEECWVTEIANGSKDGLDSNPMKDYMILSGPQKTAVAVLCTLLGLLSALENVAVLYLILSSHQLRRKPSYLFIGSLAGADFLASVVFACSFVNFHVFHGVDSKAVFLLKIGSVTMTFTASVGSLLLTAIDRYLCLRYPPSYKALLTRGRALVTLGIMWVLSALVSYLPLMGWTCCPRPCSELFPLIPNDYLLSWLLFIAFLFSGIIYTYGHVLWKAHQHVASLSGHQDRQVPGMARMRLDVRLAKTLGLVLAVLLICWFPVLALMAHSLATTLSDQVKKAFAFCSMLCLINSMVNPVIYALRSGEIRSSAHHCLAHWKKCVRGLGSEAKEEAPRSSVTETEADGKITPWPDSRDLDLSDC
T15 sequence (P47871 26-477): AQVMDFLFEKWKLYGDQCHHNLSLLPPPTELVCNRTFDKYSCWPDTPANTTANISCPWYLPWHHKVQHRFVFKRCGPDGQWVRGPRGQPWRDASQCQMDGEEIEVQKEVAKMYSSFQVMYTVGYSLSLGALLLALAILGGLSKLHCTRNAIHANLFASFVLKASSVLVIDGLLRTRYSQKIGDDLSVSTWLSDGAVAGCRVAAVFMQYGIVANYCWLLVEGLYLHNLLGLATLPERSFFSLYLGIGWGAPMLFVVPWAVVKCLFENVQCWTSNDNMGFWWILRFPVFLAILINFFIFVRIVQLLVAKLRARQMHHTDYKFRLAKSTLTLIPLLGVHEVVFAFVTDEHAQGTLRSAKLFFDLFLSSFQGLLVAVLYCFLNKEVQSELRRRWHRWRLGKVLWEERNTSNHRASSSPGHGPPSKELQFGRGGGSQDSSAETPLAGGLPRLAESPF
T12 sequence (P35367 whole entry): as the sequence (P35367 whole entry, the tested form may be a part) above

Regarding B1, the BiFC score with CXCR4-VN is 7.85.

With B2, the binding result in the experiment with CHRM1-VC [1], with EDNRB-VC [2], with HRH1-VC [3], with MLNR-VC [4], in the experiment with NTSR1-VC [5] and with SSTR2-VC [6] was “binds” each time. Further, the binding result with TACR3-VC [7], with ADRB2-VC [8], in the experiment with APLNR-VC [9], with ADRB2, in the experiment with CHRM1 and with HRH1 was “binds” throughout.

Turning to B3, the binding result in the experiment with CHRM1-VC [10], in the experiment with EDNRB-VC [11], in the experiment with HRH1-VC [12], with MLNR-VC [13], with NTSR1-VC [14] and with PTGER2-VC was “binds” throughout. For the same molecule, the binding result with TACR3-VC [15] was “binds”; in the experiment with ADRB2-VC [16], “binds”; with SSTR2-VC [17] it was “binds”; in the experiment with CNR2-VC, “binds”; with APLNR-VC [18] it was “binds”; with GCGR-VC, “no binding”.

Source of the values: US20190183976A1 (GPCR THERAPEUTICS, published 2019).
